Source: article PMC6126627
pKd: −log10 of the molar value.

Experiments:
Assay in all cases: ELISA
[1] = molecular target: human plasma fibronectin (human)
[2] = molecular target: murine sarcoma laminin (mouse) (UniProt P19137)
[3] = molecular target: human plasma vitronectin (human)

With “full-length recombinant P4 (rP4^G22-K274), Haemophilus lipoprotein e (from UniProt P26093 22-274) (natural protein)” the pKd [1] was 7.99, the pKd [2] was 8.03 and the pKd [3] was 7.78.
